Data from US20220281976A1 (Alector, published 2022).
Positions count from the first letter of the chain named.

B1: C-1 (antibody, V domains shown)
VH: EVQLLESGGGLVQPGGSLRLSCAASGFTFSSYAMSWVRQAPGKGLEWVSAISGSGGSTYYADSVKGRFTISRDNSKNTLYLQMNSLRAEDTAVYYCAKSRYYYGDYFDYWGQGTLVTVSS
VL: EIVLTQSPATLSLSPGERATLSCRASQSVSSYLAWYQQKPGQAPRLLIYDASNRATGIPARFSGSGSGTDFTLTISSLEPEDFAVYYCQQYYFWPLTFGGGTKVEIK
notes: full-length human IgG1
B2: C-19 (antibody, V domains shown)
VH: QLQLQESGPGLVKPSETLSLTCTVSGGSISSSSYAWGWIRQPPGKGLEWIGSIYYSGSTYYNPSLKSRVTISVDTSKNQFSLKLSSVTAADTAVYYCARVGYTRPYGMDVWGQGTTVTVSS
VL: DIQMTQSPSSVSASVGDRVTITCRASQGISSWLAWYQQKPGKAPKLLIYAASSLQSGVPSRFSGSGSGTDFTLTISSLQPEDFATYYCQQINAHPTFGGGTKVEIK
notes: human IgG1
B3: C-35 (antibody, V domains shown)
VH: B2 VH with S52N, V100A, T103R, R104S, Y106S, M108F, V110Y, T116L
VL: B2 VL with S53N, I91G
notes: human IgG1
B4: C-36 (antibody, V domains shown)
VH: EVQLVESGGGLVQPGGSLRLSCAASGFTFSSYWMSWVRQAPGKGLEWVANIKQDGSEKYYVDSVKGRFTISRDNAKNSLYLQMNSLRAEDTAVYYCARDGQYYPAYGMDVWGQGTTVTVSS
VL: EIVMTQSPATLSVSPGERATLSCRASQSVSSNLAWYQQKPGQAPRLLIYGASTRATGIPARFSGSGSGTEFTLTISSLQSEDFAVYYCQQYFDLPTFGGGTKVEIK
notes: human IgG1
B5: C-42 (antibody, V domains shown)
VH: QLQLQESGPGLVKPSETLSLTCTVSGGSISSSSYYWGWIRQPPGKGLEWIGSIYYSGSTYYNPSLKSRVTISVDTSKNQFSLKLSSVTAADTAVYYCAREPIYRRGMDVWGQGTTVTVSS
VL: EIVLTQSPATLSLSPGERATLSCRASQSVSSYLAWYQQKPGQAPRLLIYDASNRATGIPARFSGSGSGTDFTLTISSLEPEDFAVYYCQQFSNYPTFGGGTKVEIK
notes: human IgG1
B6: C-63 (antibody, V domains shown)
VH: QVQLVQSGAEVKKPGSSVKVSCKASGGTFSSYAISWVRQAPGQGLEWMGSIIPIFGTANYAQKFQGRVTITADESTSTAYMELSSLRSEDTAVYYCARDLGGQYYGSHHYWGQGTLVTVSS
VL: B1 VL with L13V, S30G, Y32N, D50G, N53T, D70E, E79Q, P80S, Y92N, F93A
notes: human IgG1
B7: C-66 (antibody, V domains shown)
VH: B5 VH with P101V, I102G, R104P, R105Y
VL: DIQLTQSPSSLSASVGDRVTITCQASQDISNFLNWYQQKPGKAPKLLIYDASNLETGVPSRFSGSGSGTDFTFTISSLQPEDIATYYCQQYSDLPTFGGGTKVEIK
notes: human IgG1
B8: C-70 (antibody, V domains shown)
VH: QVQLVESGGGVVQPGRSLRLSCAASGFTFSTYGMHWVRQAPGKGLEWVAVIWYDGSNKYYADSVKGRFTISRDNSKNTLYLQMNSLRAEDTAVYYCARGQHGTSRVDFDYWGQGTLVTVSS
VL: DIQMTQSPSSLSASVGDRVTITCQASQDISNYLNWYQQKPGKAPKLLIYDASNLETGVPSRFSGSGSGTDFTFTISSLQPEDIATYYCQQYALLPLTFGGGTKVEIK
notes: human IgG1
B9: C-73 (antibody, V domains shown)
VH: QVQLVESGGGVVQPGRSLRLSCAASGFTFSSYGMHWVRQAPGKGLEWVAVIWYDGSNKYYADSVKGRFTISRDNSKNTLYLQMNSLRAEDTAVYYCARGTNAYGTPRDFDLWGRGTLVTVSS
VL: DIQMTQSPSSLSASVGDRVTITCRASQSISSYLNWYQQKPGKAPKLLIYAASSLQSGVPSRFSGSGSGTDFTLTISSLQPEDFATYYCQQLSDTPITFGGGTKVEIK
notes: human IgG1
B10: C-83 (antibody, V domains shown)
VH: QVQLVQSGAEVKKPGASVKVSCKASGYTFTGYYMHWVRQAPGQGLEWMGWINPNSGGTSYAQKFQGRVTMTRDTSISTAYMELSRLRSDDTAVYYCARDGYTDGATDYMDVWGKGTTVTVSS
VL: B9 VL with M4L, L11V, S28G, Y32W, N34A, L91A, S92Y, D93A, T94L, I96P
notes: human IgG1
B11: C-13 (antibody, V domains shown)
VH: EVQLVESGGGLVQPGGSLRLSCAASGFTFSSYWMSWVRQAPGKGLEWVANIKSDGSEKYYVDSVKGRFTISRDNAKNSLYLQMNSLRAEDTAVYYCARGPSYLASGAFDLWGRGTLVTVSS
VL: EIVLTQSPATLSLSPGERATLSCRASQSVSSYLAWYQQKPGQAPRLLIYDASNRATGIPARFSGSGSGTDFTLTISSLEPEDFAVYYCQQAYVVPPRTFGGGTKVEIK
notes: human IgG1
B12: C-18 (antibody, V domains shown)
VH: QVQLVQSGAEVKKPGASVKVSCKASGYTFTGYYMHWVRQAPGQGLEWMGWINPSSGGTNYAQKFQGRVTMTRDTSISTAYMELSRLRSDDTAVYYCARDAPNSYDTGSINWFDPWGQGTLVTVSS
VL: B9 VL with L11V, S28G, Y32W, N34A, L91A, S92N, D93Y, T94H, I96L
notes: human IgG1

Biological target: T1, human CD33 (human, UniProt P20138 18-364)
T1 construct: CD33 on human primary dendritic cells, macrophages, monocytes and T cells and on CHO cells expressing recombinant human CD33; also called Siglec-3; hCD33
T1 sequence (P20138 18-364): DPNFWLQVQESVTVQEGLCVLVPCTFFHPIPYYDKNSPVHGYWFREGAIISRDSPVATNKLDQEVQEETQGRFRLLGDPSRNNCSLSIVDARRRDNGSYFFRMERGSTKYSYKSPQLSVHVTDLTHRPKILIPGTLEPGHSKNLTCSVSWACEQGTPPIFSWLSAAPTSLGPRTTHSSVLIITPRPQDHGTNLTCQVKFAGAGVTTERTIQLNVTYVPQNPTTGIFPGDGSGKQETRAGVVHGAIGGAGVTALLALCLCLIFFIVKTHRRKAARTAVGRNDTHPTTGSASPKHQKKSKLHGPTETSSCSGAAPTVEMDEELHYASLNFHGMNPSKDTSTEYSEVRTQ
Experiment: flow cytometry, human primary macrophages;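 also: binding of CD33 antibodies at 10 µg/ml to human primary macrophages, 1 h on ice, detected with PE-labelled secondary antibody by flow cytometry, reported as MFI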

First: B1
Second: B2
The “Macrophage MFI” value of the first is higher: 924 for the first, 887 for the second.

Compared with B3, B4 is lower in “Macrophage MFI” value: 920 for the first, 853 for the second.

Going from B5 to B6, the “Macrophage MFI” value rises from 617 to 872.

Going from B7 to B8, the “Macrophage MFI” value falls from 729 to 652.

First: B9
Second: B10
The “Macrophage MFI” value of the first is higher: 573 for the first, 409 for the second.

First: B11
Second: B12
The “Macrophage MFI” value of the first is lower: 838 for the first, 981 for the second.

Biological target: T1, human CD33
Experiment: flow cytometry, human primary dendritic cells;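 also: binding of anti-CD33 antibodies (10 ug/ml, 1 h on ice) to human primary dendritic cells, detected with a PE-labelled secondary antibody, reported as flow cytometry MFI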

First: B1
Second: B2
The “DC MFI” value of the first is lower: 1440 for the first, 1700 for the second.

Going from B3 to B4, the “DC MFI” value falls from 1320 to 1160.

Compared with B5, B6 is higher in “DC MFI” value: 1130 for the first, 1200 for the second.

First: B7
Second: B8
The “DC MFI” value of the first is lower: 892 for the first, 938 for the second.

Going from B9 to B10, the “DC MFI” value falls from 1050 to 70.

First: B11
Second: B12
The “DC MFI” value of the first is higher: 1740 for the first, 1190 for the second.

Biological target: T1, human CD33
Experiment: flow cytometry, human primary monocytes;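 also: binding of anti-CD33 antibodies at 10 ug/ml to human primary monocytes, 1 h on ice, detected by PE-labelled secondary antibody, flow cytometry readout as mean fluorescence intensity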
Design: reference not given here

Compared with B1, B2 is higher in “Monocyte MFI” value: 177 for the first, 182 for the second.

Going from B3 to B4, the “Monocyte MFI” value falls from 160 to 144.

Going from B5 to B6, the “Monocyte MFI” value rises from 74 to 117.

First: B7
Second: B8
The “Monocyte MFI” value of the first is higher: 107 for the first, 84 for the second.

Going from B9 to B10, the “Monocyte MFI” value rises from 94 to 646.

Going from B11 to B12, the “Monocyte MFI” value rises from 181 to 189.

Biological target: T2, human monomeric His tagged CD33 protein (human, UniProt P20138 18-259)
T2 construct: also called hCD33-His
T2 sequence (P20138 18-259 limits assumed): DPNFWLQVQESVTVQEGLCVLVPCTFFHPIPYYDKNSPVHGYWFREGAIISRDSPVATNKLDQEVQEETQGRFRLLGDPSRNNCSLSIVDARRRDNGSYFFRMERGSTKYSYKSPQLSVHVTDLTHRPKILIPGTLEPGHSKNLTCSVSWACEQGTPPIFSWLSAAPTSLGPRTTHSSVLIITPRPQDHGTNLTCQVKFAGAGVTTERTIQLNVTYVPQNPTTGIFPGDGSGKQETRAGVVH
Experiment: ForteBio BLI or MSD-SET, IgG, monomeric antigen;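 also: BLI: antibodies captured on AHQ sensors, 100 nM antigen association 5 min, dissociation 5 min, 1:1 fit. MSD-SET: antigen fixed at 50 pM, antibody titrated, quadratic fit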
Method: (§1) The binding affinity of each anti-CD33 antibody was determined by measuring their KD by ForteBio or MSD-SET. […] Briefly, ForteBio affinity measurements were performed by loading IgGs on-line onto AHQ sensors. Sensors were equilibrated off-line in assay buffer for 30 min and then monitored on-line for 60 seconds for baseline establishment. Sensors with loaded IgGs were exposed to 100 nM antigen for 5 minutes, then transferred to assay buffer for 5 min for off-rate measurement. Kinetics were analyzed using the 1:1 binding model.
(§2) Solution equilibrium titrations (SET) were performed in PBS+0.1% IgG-Free BSA (PBSF) with antigen held constant at 50 pM and incubated with 3-to 5-fold serial dilutions of antibody starting at 10 nM. Antibodies (20 nM in PBS) were coated onto standard bind MSD-ECL plates overnight at 4° C. or at room temperature for 30 min. Plates were then blocked for 30 min with shaking at 700 rpm, followed by three washes with wash buffer (PBSF+0.05% Tween 20). SET samples were applied and incubated on the plates for 150s with shaking at 700 rpm followed by one wash. Antigen captured on a plate was detected with 250 ng/mL sulfotag-labeled streptavidin in PBSF by incubation on the plate for 3 min. The plates were washed three times with wash buffer and then read on the MSD Sector Imager 2400 instrument using 1× Read Buffer T with surfactant. The percent free antigen was plotted as a function of titrated antibody in Prism and fit to a quadratic equation to extract the KD. To improve throughput, liquid handling robots were used throughout MSD-SET experiments, including SET sample preparation.

First: B1
Second: B2
The Kd of the first is 5.3-fold higher: 9.69 nM for the first, 1.82 nM for the second. The second binds more tightly here.

Compared with B3, B4 is 1.8-fold lower in Kd: 4.26 nM for the first, 2.35 nM for the second.

Going from B5 to B7, the Kd rises from 12.7 nM to 100 nM (7.9-fold). The first binds more tightly here.

B8 and B9 are within 1.5-fold of each other in Kd: 32.2 nM for the first, 23.7 nM for the second.

Compared with B10, B11 is 5.9-fold lower in Kd: 59.3 nM for the first, 9.97 nM for the second.

B12 gave a Kd of 16.1 nM.

Biological target: T3, human CD33 Fc fusion protein (human, UniProt P20138 18-259)
T3 construct: also called hCD33-Fc; human CD33/Fc chimera (R&D Systems)
T3 sequence (P20138 18-259 limits assumed): as above
Experiment: RBC adhesion to plate-bound CD33-Fc; antibody 1.0 ug/ml;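 also: red blood cells adhering to plate-coated CD33-Fc after 1 h antibody pretreatment, then 1 h at room temperature, bound cells read as peroxidase activity after lysis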

Compared with B1, B2 is lower in “Percent RBC Binding to CD33” value: 91.5% for the first, 14.3% for the second.

Compared with B3, B4 is higher in “Percent RBC Binding to CD33” value: 7.18% for the first, 16.1% for the second.

Going from B5 to B6, the “Percent RBC Binding to CD33” value falls from 6.65% to 5.66%.

Going from B7 to B8, the “Percent RBC Binding to CD33” value falls from 19.3% to 7.46%.

Going from B9 to B10, the “Percent RBC Binding to CD33” value rises from 13.7% to 108%.

Going from B11 to B12, the “Percent RBC Binding to CD33” value rises from 15.3% to 119%.

Biological target: T4, mouse CD33 Fc fusion protein (mouse, UniProt Q63994 18-240, limits assumed)
T4 construct: also called mCD33-Fc
T4 sequence: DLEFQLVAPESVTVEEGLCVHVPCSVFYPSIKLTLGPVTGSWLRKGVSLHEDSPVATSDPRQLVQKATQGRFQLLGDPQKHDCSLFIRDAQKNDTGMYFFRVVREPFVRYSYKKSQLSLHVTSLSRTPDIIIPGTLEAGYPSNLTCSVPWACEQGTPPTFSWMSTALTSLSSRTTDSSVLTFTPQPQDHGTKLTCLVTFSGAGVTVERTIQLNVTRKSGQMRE
Experiment: ForteBio BLI or MSD-SET

B1: no binding (tested: 100 nM).
B2: no binding (tested: 100 nM).
B3: no binding (tested: 100 nM).
B4: no binding (tested: 100 nM).
B5: no binding (tested: 100 nM).
B6: no binding (tested: 100 nM).
B7: no binding (tested: 100 nM).
B8: no binding (tested: 100 nM).
B9: no binding (tested: 100 nM).
B10: no binding (tested: 100 nM).
B11: no binding (tested: 100 nM).
B12: no binding (tested: 100 nM).

Biological target: T3, human CD33 Fc fusion protein
Experiment: ForteBio BLI or MSD-SET, IgG, avid;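 also: Anti-CD33 IgG affinity by BLI, IgG captured on AHQ sensors with antigen in solution and a one-to-one kinetic fit, or by MSD solution equilibrium titration with quadratic fit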
Method: as §1, §2

Going from B1 to B6, the Kd rises from 2.53 nM to 4.01 nM (1.6-fold).

Biological target: T1, human CD33
Experiment: flow cytometry, human primary T cells;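 also: binding of anti-CD33 antibodies at 10 ug/ml to human primary T cells, 1 h on ice, detected with PE-labelled secondary antibody, read as flow cytometry MFI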
Method: Initial characterization of CD33 antibodies involved determining their ability to bind CD33 expressed on a CHO cell line, on human primary monocytes, human primary macrophages, human primary dendritic cells, and on human primary T cells. Cells were harvested, plated at 10⁶/ml in a 96 well plate, and incubated in 100 ul PBS containing 2% FBS, 2 mM EDTA and 10 ug/ml Mab and Fc blocking reagent for 1 hour in ice. Cells were washed twice and incubated in 100 ul PBS containing 2% FBS, 2 mM EDTA and 5 ug/ml PE-conjugated secondary antibody for 30 minutes on ice. Cells were washed twice in cold PBS and analyze by flow cytometry on a BD FACS Canto. Data analysis and calculation of MFI values was performed with FlowJo (TreeStar) software version 10.0.7.

Compared with B1, B2 is higher in “T cell MFI” value: 461 for the first, 470 for the second.

Going from B3 to B4, the “T cell MFI” value rises from 186 to 228.

Compared with B5, B6 is lower in “T cell MFI” value: 269 for the first, 28.8 for the second.

Compared with B7, B8 is lower in “T cell MFI” value: 772 for the first, 192 for the second.

Going from B9 to B10, the “T cell MFI” value falls from 210 to 80.6.

First: B11
Second: B12
The “T cell MFI” value of the first is higher: 205 for the first, 43.4 for the second.

Biological target: T3, human CD33 Fc fusion protein
Experiment: RBC adhesion to plate-bound CD33-Fc; antibody 0.5 ug/ml;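 also: Plate-coated CD33-Fc preincubated 1 h with antibody, then red blood cells added for 1 h at room temperature, adherent cells lysed and quantified via peroxidase activity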

Compared with B1, B2 is lower in “Percent RBC Binding to CD33” value: 93.2% for the first, 19.5% for the second.

Compared with B3, B4 is lower in “Percent RBC Binding to CD33” value: 16.6% for the first, 13.4% for the second.

Compared with B5, B6 is lower in “Percent RBC Binding to CD33” value: 21.2% for the first, 17.1% for the second.

Going from B7 to B8, the “Percent RBC Binding to CD33” value falls from 44% to 23%.

First: B9
Second: B10
The “Percent RBC Binding to CD33” value of the first is lower: 29.8% for the first, 98.7% for the second.

First: B11
Second: B12
The “Percent RBC Binding to CD33” value of the first is lower: 41.3% for the first, 111% for the second.

Biological target: T1, human CD33
Experiment: cell-based or functional assay

Going from B1 to B2, the “Percent CD33 Surface Expression, DC % CD33” value falls from 80.9% to 11.6%.

First: B3
Second: B4
The “Percent CD33 Surface Expression, DC % CD33” value of the first is lower: 18.7% for the first, 21.2% for the second.

First: B5
Second: B6
The “Percent CD33 Surface Expression, DC % CD33” value of the first is lower: 27.8% for the first, 56.8% for the second.

Going from B7 to B8, the “Percent CD33 Surface Expression, DC % CD33” value falls from 77.4% to 47.5%.

First: B9
Second: B10
The “Percent CD33 Surface Expression, DC % CD33” value of the first is lower: 22.9% for the first, 79.6% for the second.

First: B11
Second: B12
The “Percent CD33 Surface Expression, DC % CD33” value of the first is lower: 21.8% for the first, 80% for the second.

First: B1
Second: B2
The “Percent CD33 Surface Expression, Macrophage % CD33” value of the first is higher: 94.4% for the first, 58.7% for the second.

Compared with B3, B4 is lower in “Percent CD33 Surface Expression, Macrophage % CD33” value: 51.2% for the first, 36.3% for the second.

Going from B5 to B8, the “Percent CD33 Surface Expression, Macrophage % CD33” value rises from 52.2% to 68.8%.

Compared with B9, B11 is higher in “Percent CD33 Surface Expression, Macrophage % CD33” value: 55.9% for the first, 63.1% for the second.

First: B1
Second: B2
The “Percent CD33 Surface Expression, Monocyte % CD33” value of the first is higher: 100% for the first, 28.2% for the second.

Going from B3 to B4, the “Percent CD33 Surface Expression, Monocyte % CD33” value rises from 31.9% to 46.6%.

Compared with B5, B6 is higher in “Percent CD33 Surface Expression, Monocyte % CD33” value: 44.9% for the first, 75.6% for the second.

Going from B7 to B8, the “Percent CD33 Surface Expression, Monocyte % CD33” value falls from 59.9% to 53.9%.

First: B9
Second: B10
The “Percent CD33 Surface Expression, Monocyte % CD33” value of the first is lower: 24.9% for the first, 87.8% for the second.

Going from B11 to B12, the “Percent CD33 Surface Expression, Monocyte % CD33” value rises from 48% to 84.8%.
